Consider two substances from article PMC11074293.

One experiment has as its target KLHL22^1–178 (human) (UniProt Q53GT1). As to the kind of experiment: SEC-MALS; WTC-015S5 column, low salt buffer; complexes at 2 mg/ml, KLHL22^1–178 and KLHL12^1–161 alone at 3 mg/ml.
Another experiment deals with KLHL12^1–161 (human) (UniProt Q53G59). The experiment is described as above.
KLHL12^1–161 (human), sequence (Q53G59 1-161): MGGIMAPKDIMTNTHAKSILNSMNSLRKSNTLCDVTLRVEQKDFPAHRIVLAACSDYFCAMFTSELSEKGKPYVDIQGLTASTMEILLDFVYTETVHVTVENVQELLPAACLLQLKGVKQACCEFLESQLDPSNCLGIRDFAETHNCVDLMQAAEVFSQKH

CUL3^Δ1–24-RBX1, sequence (Q13618 25-768, stated change not applied): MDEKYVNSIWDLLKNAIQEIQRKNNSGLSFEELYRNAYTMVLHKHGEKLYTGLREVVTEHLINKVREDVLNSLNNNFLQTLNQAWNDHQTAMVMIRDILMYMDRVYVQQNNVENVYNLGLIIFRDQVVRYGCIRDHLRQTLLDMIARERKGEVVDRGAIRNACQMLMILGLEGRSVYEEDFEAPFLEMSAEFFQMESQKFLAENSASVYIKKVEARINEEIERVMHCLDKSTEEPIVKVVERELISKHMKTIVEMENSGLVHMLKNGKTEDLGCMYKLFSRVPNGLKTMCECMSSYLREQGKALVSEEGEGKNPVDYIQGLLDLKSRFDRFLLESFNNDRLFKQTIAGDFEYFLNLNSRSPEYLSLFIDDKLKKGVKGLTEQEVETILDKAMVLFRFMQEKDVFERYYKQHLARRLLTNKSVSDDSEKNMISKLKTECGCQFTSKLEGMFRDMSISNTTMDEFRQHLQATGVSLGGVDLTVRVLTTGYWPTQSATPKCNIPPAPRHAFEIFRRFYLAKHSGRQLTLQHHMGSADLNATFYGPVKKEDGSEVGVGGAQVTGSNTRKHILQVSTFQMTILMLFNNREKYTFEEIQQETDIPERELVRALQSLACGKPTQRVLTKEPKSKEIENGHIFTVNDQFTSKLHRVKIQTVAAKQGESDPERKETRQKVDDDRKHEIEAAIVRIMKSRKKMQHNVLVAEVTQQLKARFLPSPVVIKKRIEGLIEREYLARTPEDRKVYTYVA
CUL3^Δ1–24-RBX1, sequence (P62877 whole entry, stated change not applied): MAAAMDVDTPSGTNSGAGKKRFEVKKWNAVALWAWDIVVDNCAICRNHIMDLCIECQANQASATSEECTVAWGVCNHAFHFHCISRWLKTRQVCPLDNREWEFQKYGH
KLHL22^1–178 (human), sequence (Q53GT1 1-178): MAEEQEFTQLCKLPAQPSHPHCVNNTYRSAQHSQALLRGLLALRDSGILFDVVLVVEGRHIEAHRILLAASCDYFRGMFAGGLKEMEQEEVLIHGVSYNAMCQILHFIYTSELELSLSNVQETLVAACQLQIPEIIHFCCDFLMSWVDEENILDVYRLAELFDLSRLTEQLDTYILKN
CUL3^WT-RBX1, sequence (Q13618 whole entry): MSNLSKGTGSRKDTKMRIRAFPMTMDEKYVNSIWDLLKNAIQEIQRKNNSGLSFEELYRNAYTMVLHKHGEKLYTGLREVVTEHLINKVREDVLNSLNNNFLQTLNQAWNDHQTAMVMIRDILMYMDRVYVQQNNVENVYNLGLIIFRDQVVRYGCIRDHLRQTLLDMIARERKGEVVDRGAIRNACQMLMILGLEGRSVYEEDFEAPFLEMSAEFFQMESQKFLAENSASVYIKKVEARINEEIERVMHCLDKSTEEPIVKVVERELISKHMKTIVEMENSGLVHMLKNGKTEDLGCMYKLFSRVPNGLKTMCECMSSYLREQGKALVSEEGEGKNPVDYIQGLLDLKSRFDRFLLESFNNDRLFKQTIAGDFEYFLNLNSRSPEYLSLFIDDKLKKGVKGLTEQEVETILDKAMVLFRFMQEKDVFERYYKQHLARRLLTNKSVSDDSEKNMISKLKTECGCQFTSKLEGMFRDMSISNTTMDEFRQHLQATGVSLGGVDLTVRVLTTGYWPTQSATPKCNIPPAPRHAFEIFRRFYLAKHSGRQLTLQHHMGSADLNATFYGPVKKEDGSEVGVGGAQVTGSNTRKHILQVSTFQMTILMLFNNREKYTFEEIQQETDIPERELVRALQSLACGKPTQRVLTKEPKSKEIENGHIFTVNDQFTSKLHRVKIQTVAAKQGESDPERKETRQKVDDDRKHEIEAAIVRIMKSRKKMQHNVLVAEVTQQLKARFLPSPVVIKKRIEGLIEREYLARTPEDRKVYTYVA
CUL3^WT-RBX1, sequence (P62877 whole entry): as the sequence (P62877 whole entry, stated change not applied) above

Take “CUL3^WT-RBX1 (from UniProt Q13618 1-768; P62877 1-108) (complex)”: the stoichiometry N (CUL3-RBX1 per KLHL22^1–178 dimer) with KLHL22^1–178 (human) came to 2.

“CUL3^Δ1–24-RBX1 (from UniProt Q13618 25-768; P62877 1-108) (complex)”: the stoichiometry N (CUL3-RBX1 per KLHL12^1–161 dimer) in the experiment with KLHL12^1–161 (human) amounted to 1. The stoichiometry N (CUL3-RBX1 per KLHL22^1–178 dimer) in the experiment with KLHL22^1–178 (human) amounted to 1.
